Assay [1] has as its target SARS-CoV-2 S-protein receptor-binding domain (SARS-CoV-2) (UniProt P0DTC2). Nature of the assay: ELISA.
Assay [2] has the same target. The experiment in a line: BLI. In general terms: In BLI a coated tip is dipped into the sample, and binding shifts an interference pattern.

Consider “human ACE2 extracellular domain, E37K variant, Fc-tagged dimeric form (from UniProt Q9BYF1-1 18-615) (Fc fusion)”, for which the EC50 (in general, the midpoint of the concentration-response curve) in assay [1] stood at 15.8 nM. In assay [2], the Kd – broadly, the constant that tells how readily two partners part at equilibrium – stood at 22.7 nM.

The values above are taken from paper PMC8041869.
